These results are taken from patent publication US20240174727A1, “LONG-ACTING NATRIURETIC PEPTIDES AND USES THEREOF” (Eli Lilly and Company, priority 2022, published 2024).

Bridge positions count the residues as written; N and C are the ends. Square brackets hold non-standard residues; d marks the D form. Ends that are not written are not given here. thioacetal = thioacetal linkage between two cysteines (intrachain bond at the bracketed Cys); βAla = NCCC(=O)O

In one assay the target is T1, human NPRA (human, UniProt P16066 33-1061).
T1 sequence (looked up): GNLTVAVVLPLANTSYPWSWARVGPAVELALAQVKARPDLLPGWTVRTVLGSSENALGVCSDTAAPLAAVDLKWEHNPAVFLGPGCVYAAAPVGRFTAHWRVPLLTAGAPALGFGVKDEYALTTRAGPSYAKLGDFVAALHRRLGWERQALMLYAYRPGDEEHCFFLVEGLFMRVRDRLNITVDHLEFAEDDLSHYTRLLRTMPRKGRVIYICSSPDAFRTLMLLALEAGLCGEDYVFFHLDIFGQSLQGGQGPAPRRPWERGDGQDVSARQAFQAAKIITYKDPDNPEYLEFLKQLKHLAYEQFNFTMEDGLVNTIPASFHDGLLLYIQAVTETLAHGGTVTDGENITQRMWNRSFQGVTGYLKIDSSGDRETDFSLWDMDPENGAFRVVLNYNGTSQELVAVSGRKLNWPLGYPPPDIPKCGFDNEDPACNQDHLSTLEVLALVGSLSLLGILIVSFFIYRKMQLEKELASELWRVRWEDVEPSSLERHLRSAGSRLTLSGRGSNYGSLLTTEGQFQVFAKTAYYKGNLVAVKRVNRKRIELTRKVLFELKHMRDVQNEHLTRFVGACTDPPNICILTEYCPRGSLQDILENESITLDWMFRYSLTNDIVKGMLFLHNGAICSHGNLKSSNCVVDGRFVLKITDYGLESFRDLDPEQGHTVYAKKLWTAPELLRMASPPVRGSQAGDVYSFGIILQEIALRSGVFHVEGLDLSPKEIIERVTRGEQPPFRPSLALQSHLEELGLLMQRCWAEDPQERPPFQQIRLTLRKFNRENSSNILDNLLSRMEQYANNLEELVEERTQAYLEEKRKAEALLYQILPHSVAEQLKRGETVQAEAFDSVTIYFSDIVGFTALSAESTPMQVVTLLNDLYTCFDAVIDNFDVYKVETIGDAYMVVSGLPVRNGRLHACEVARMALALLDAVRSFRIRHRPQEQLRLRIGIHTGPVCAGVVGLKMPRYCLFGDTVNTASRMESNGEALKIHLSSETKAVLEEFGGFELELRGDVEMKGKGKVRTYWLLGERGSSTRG
Description: cell-based or functional assay.

A further assay has as its target T2, rat NPRA (rat, UniProt P18910 29-1057).
T2 sequence (looked up): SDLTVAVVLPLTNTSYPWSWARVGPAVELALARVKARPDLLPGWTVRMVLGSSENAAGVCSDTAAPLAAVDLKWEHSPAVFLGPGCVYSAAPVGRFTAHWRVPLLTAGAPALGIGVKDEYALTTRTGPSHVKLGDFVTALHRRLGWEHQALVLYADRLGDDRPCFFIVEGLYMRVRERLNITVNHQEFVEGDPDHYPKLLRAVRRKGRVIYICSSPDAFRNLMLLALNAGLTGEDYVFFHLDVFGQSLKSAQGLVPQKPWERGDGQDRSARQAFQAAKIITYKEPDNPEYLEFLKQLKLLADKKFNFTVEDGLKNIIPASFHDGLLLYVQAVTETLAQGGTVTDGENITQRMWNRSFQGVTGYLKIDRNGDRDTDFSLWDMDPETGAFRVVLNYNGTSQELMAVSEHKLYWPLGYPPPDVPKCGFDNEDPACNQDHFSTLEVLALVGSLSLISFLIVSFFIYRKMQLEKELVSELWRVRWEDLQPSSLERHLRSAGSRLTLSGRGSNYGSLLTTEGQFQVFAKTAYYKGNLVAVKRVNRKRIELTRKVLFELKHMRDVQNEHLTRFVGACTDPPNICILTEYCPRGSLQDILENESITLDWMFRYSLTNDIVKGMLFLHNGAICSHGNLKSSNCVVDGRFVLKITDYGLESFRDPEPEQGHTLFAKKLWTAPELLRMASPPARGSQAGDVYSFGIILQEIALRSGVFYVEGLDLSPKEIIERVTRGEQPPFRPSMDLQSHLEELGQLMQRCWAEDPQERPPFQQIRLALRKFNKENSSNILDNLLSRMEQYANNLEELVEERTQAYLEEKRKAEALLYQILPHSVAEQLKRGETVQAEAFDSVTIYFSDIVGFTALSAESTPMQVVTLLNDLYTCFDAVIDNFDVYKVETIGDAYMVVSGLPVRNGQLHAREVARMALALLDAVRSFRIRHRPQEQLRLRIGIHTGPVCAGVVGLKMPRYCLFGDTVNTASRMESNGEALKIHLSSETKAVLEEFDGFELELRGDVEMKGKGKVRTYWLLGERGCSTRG
Description: cell-based or functional assay.

B1: Example 87 (peptide)
peptide: SXRRSSCFGKRIDRIGHQSGLGCPSFRHGGKSSGAPPPS
modifications: HOOC-(CH2)18-CO-(γGlu)-EKEKEKG-(AEEA)8-S-4Pal-RRSS[CFGKRIDRIGHQSGLGC]PSFRHGGKSSGAPPPS-NH2; thioacetal linkage between the bracketed Cys
Regarding B1, the results for the “cGMP Assay (EC50, pM) w/BSA” value with human NPRA and in the assay with rat NPRA were 3380 pM and 463000 pM, respectively. Also, the “cGMP Assay (EC50, pM) w/Casein” value came out at 621 pM with human NPRA and 8870 pM with rat NPRA.

B2: Example 95 (peptide)
peptide: SXRRSSCFGGRIDRIGHYSGLGCPSFRHGGKSSGAPPPS
modifications: HOOC-(CH2)18-CO-(γGlu)-EKEKEKG-PEG24-S-4Pal-RRSS[CFGGRIDRIGHYSGLGC]PSFRHGGKSSGAPPPS-NH2; thioacetal linkage between the bracketed Cys
Turning to B2, in the assay with human NPRA, the “cGMP Assay (EC50, pM) w/BSA” value was found to be 7030 pM and the “cGMP Assay (EC50, pM) w/Casein” value worked out at 771 pM. Further, in the assay with rat NPRA, the “cGMP Assay (EC50, pM) w/BSA” value came to 322000 pM and the “cGMP Assay (EC50, pM) w/Casein” value amounted to 12300 pM.

B3: Example 91 (peptide)
peptide: SXRRSSCFGGRIDRIGHYSGLGCPSFRHGGKSSGAPPPS
modifications: HOOC-(CH2)18-CO-(γGlu)-EKEKEKG-(AEEA)8-S-4Pal-RRSS[CFGGRIDRIGHYSGLGC]PSFRHGGKSSGAPPPS-NH2; thioacetal linkage between the bracketed Cys
On to B3, for which, in the assay with human NPRA, the “cGMP Assay (EC50, pM) w/BSA” value was found to be 13900 pM and the “cGMP Assay (EC50, pM) w/Casein” value was found to be 1000 pM. Besides, in the assay with rat NPRA, the “cGMP Assay (EC50, pM) w/BSA” value stood at 549000 pM and the “cGMP Assay (EC50, pM) w/Casein” value is 16200 pM.

B4: Example 96 (peptide)
peptide: SXRRSSCFGGRIDRIGHYSGLGCPSFRHGSPSSGAPPPS
modifications: HOOC-(CH2)18-CO-(γGlu)-EKEKEKG-(AEEA)6-S-4Pal-RRSS[CFGGRIDRIGHYSGLGC]PSFRHGSPSSGAPPPS-NH2; thioacetal linkage between the bracketed Cys
B4: in the assay with human NPRA, the “cGMP Assay (EC50, pM) w/BSA” value is 12700 pM and the “cGMP Assay (EC50, pM) w/Casein” value was found to be 720 pM. In the assay with rat NPRA, the “cGMP Assay (EC50, pM) w/BSA” value came to 401000 pM and the “cGMP Assay (EC50, pM) w/Casein” value stood at 12200 pM.

B5: Example 88 (peptide)
peptide: EKXRSSCFGKRIDRIGHQSGLGCPSFRHGGKSSGAPPPS
modifications: HOOC-(CH2)18-CO-(γGlu)-EKEKEKG-(AEEA)4-EK-βAla-RSS[CFGKRIDRIGHQSGLGC]PSFRHGGKSSGAPPPS-NH2; thioacetal linkage between the bracketed Cys
For the molecule B5, in the assay with human NPRA, the “cGMP Assay (EC50, pM) w/BSA” value turned out to be 16300 pM and the “cGMP Assay (EC50, pM) w/Casein” value came to 520 pM. In the assay with rat NPRA, the “cGMP Assay (EC50, pM) w/BSA” value was determined as 1.05e+06 pM and the “cGMP Assay (EC50, pM) w/Casein” value was 11400 pM.

B6: Example 92 (peptide)
peptide: SXRRSSCFGGRIDRIGHYSGLGCPSFRHGGKSSGAPPPS
modifications: HOOC-(CH2)18-CO-(γGlu)-EKEKEKG-(AEEA)6-S-4Pal-RRSS[CFGGRIDRIGHYSGLGC]PSFRHGGKSSGAPPPS-NH2; thioacetal linkage between the bracketed Cys
As to B6, in the assay with human NPRA, the “cGMP Assay (EC50, pM) w/BSA” value came out at 10100 pM and the “cGMP Assay (EC50, pM) w/Casein” value came to 772 pM. Also, in the assay with rat NPRA, the “cGMP Assay (EC50, pM) w/BSA” value was found to be 290000 pM and the “cGMP Assay (EC50, pM) w/Casein” value was determined as 12400 pM.

B7: Example 89 (peptide)
peptide: EKXRSSCFGKRIDRIGHQSGLGCPSFRHGGKSSGAPPPS
modifications: HOOC-(CH2)18-CO-(γGlu)-EKEKEKG-(AEEA)6-EK-βAla-RSS[CFGKRIDRIGHQSGLGC]PSFRHGGKSSGAPPPS-NH2; thioacetal linkage between the bracketed Cys
B7: in the assay with human NPRA, the “cGMP Assay (EC50, pM) w/BSA” value is 10800 pM and the “cGMP Assay (EC50, pM) w/Casein” value was 806 pM. Also, in the assay with rat NPRA, the “cGMP Assay (EC50, pM) w/BSA” value stood at 819000 pM and the “cGMP Assay (EC50, pM) w/Casein” value was 13800 pM.
For EK[βAla]RSSCFGKRIDRIGHQSGLGCPSFRHGGKSSGAPPPS-NH2 (bridge 7-23 via thioacetal; not fully specified (N-terminus)) [Example 90] the same measures were 19700 pM, 452 pM, 734000 pM and 13200 pM.

B8: Example 6 (peptide)
peptide: EKXRSSCFGGKIDRIGHYSGLGCPSFRHGSPSSGAPPPS
modifications: HOOC-(CH2)18-CO-(γGlu)-EKEKEKG-PEG24-EK-βAla-RSS[CFGGKIDRIGHYSGLGC]PSFRHGSPSSGAPPPS-NH2; thioacetal linkage between the bracketed Cys
With B8, in the assay with human NPRA, the “cGMP Assay (EC50, pM) w/BSA” value is 33300 pM and the “cGMP Assay (EC50, pM) w/Casein” value was determined as 1530 pM. In addition, in the assay with rat NPRA, the “cGMP Assay (EC50, pM) w/BSA” value came to 596000 pM and the “cGMP Assay (EC50, pM) w/Casein” value amounted to 30500 pM.

B9: Example 98 (peptide)
peptide: EKXRSSCFGGRIDRIGHYSGLGCPSFRHGSPSSGAPPPS
modifications: HOOC-(CH2)18-CO-(γGlu)-EKEKEKG-(AEEA)6-EK-βAla-RSS[CFGGRIDRIGHYSGLGC]PSFRHGSPSSGAPPPS-NH2; thioacetal linkage between the bracketed Cys
Regarding B9, the “cGMP Assay (EC50, pM) w/Casein” value came out at 1840 pM in the assay with human NPRA and 17900 pM with rat NPRA.

B10: Example 7 (peptide)
peptide: EKXRSSCFGGKIDRIGHQSGLGCPSFRHGSPSSGAPPPS
modifications: HOOC-(CH2)18-CO-(γGlu)-EKEKEKG-PEG24-EK-βAla-RSS[CFGGKIDRIGHQSGLGC]PSFRHGSPSSGAPPPS-NH2; thioacetal linkage between the bracketed Cys
For the molecule B10, in the assay with human NPRA, the “cGMP Assay (EC50, pM) w/BSA” value is 69600 pM and the “cGMP Assay (EC50, pM) w/Casein” value is 5670 pM. Further, in the assay with rat NPRA, the “cGMP Assay (EC50, pM) w/BSA” value was determined as 1.17e+06 pM and the “cGMP Assay (EC50, pM) w/Casein” value turned out to be 184000 pM.
